± gives the uncertainty stated by the source.
B1: Homeobox protein cut-like 1, residues 941 to 1008; numbered along this chain, P39880 (parent)
chain: QEVDTIELTRQVKEKLAKNGICQRIFGEKVLGLSQGSVSDMLSRPKPWSKLTQKGREPFIRMQLWLNG

Variants of: B1
Assay: abundance fitness (aPCA) (normalised: wild type 0, dead -1); higher = more abundant; growth selection in yeast, the domain comes from the species named
Conditions: Homo sapiens

Row | Variant | abundance fitness
1 | QEVDTIELTRQVKEKLAKNGICQRIFGEKVLGLSQGSVSDMLSRPKPWSKLTQKGRNPFIRMQLWLNG [E57N] | -0.055 ± 0.11
2 | QEVDLIELTRQVKEKLAKNGICQRIFGEKVLGLSQGSVSDMLSRPKPWSKLTQKGREPFIRMQLWLNG [T5L] | -0.135 ± 0.045
3 | QEVDAIELTRQVKEKLAKNGICQRIFGEKVLGLSQGSVSDMLSRPKPWSKLTQKGREPFIRMQLWLNG [T5A] | -0.253 ± 0.048
4 | QEVDWIELTRQVKEKLAKNGICQRIFGEKVLGLSQGSVSDMLSRPKPWSKLTQKGREPFIRMQLWLNG [T5W] | -0.176 ± 0.06
5 | QEVDVIELTRQVKEKLAKNGICQRIFGEKVLGLSQGSVSDMLSRPKPWSKLTQKGREPFIRMQLWLNG [T5V] | -0.383 ± 0.049
6 | QEVDTIELTRQDKEKLAKNGICQRIFGEKVLGLSQGSVSDMLSRPKPWSKLTQKGREPFIRMQLWLNG [V12D] | -0.049 ± 0.079
7 | QEVDTIELTRQVKEKLAKNGICQRIFGEKVLGLSQGSVSDMLSRPKPWSKRTQKGREPFIRMQLWLNG [L51R] | -0.93 ± 0.063
8 | QEVDTIELTRQVKEKLAKNGICQRIFGEKVLGLSQGSVSDMLSRPKPWSKSTQKGREPFIRMQLWLNG [L51S] | -0.92 ± 0.078
9 | QEVDTIELTRQVKEKLAKNGICQRIFGEKVLGLSQGSVSDFLSRPKPWSKLTQKGREPFIRMQLWLNG [M41F] | 0.003 ± 0.12
10 | QEVDTIELTRQVKEKLAKNGICQRIFGEKVLGLSQGSVSDMLSRPKPWSKLTQKGREPFIFMQLWLNG [R61F] | -0.991 ± 0.18
11 | QEVDTIELTRQVKEKLAKNGICQRIFGEKVLRLSQGSVSDMLSRPKPWSKLTQKGREPFIRMQLWLNG [G32R] | -0.029 ± 0.062
12 | QEVDTIELTRQVKEKLAKNGICQRIFGEKVLALSQGSVSDMLSRPKPWSKLTQKGREPFIRMQLWLNG [G32A] | -0.096 ± 0.067
13 | QEVDTIELTRQVKEKLAKNGICQRIFGEKVLLLSQGSVSDMLSRPKPWSKLTQKGREPFIRMQLWLNG [G32L] | -0.273 ± 0.054
14 | QEVDTIELTRQVKEKLAKNGICQRIFGEKVLGLSQGSVSDMMSRPKPWSKLTQKGREPFIRMQLWLNG [L42M] | -0.215 ± 0.089
15 | QEVDTIELTRQVKEKLAKNGICQRIFGEKVLGLSQGSVSDMLSIPKPWSKLTQKGREPFIRMQLWLNG [R44I] | -0.189 ± 0.1
16 | QEVDTIELTRQVKEKLAKNGICQRIFGEKVLGLSQGSVMDMLSRPKPWSKLTQKGREPFIRMQLWLNG [S39M] | 0.01 ± 0.052
17 | QEVDTIELTRQVKEKLAKNGICQRIFGEHVLGLSQGSVSDMLSRPKPWSKLTQKGREPFIRMQLWLNG [K29H] | -0.121 ± 0.08
18 | QEVDTIELTRQVKEKLAKNGICQRIFGEKVLGLSQGSVSCMLSRPKPWSKLTQKGREPFIRMQLWLNG [D40C] | -0.209 ± 0.093
19 | QEVDTIELTRQVKEKLAKNGICQRIFGEKVLGLSQGSVSAMLSRPKPWSKLTQKGREPFIRMQLWLNG [D40A] | -0.158 ± 0.055
20 | QEVDTIELTRQVKEKLAKNGICQRIFGEKVLGLSQGSPSDMLSRPKPWSKLTQKGREPFIRMQLWLNG [V38P] | -0.364 ± 0.08

Row | Variant | abundance fitness
21 | QEVDTIELTRQVKEKLAKNGICQRIFGEKVLGLSQGSCSDMLSRPKPWSKLTQKGREPFIRMQLWLNG [V38C] | -0.096 ± 0.08
22 | QEVDTIELTPQVKEKLAKNGICQRIFGEKVLGLSQGSVSDMLSRPKPWSKLTQKGREPFIRMQLWLNG [R10P] | -0.157 ± 0.075
23 | QEVDTIELTGQVKEKLAKNGICQRIFGEKVLGLSQGSVSDMLSRPKPWSKLTQKGREPFIRMQLWLNG [R10G] | -0.089 ± 0.047
24 | QEVDTIELTCQVKEKLAKNGICQRIFGEKVLGLSQGSVSDMLSRPKPWSKLTQKGREPFIRMQLWLNG [R10C] | -0.22 ± 0.083
25 | QEVDTIELTYQVKEKLAKNGICQRIFGEKVLGLSQGSVSDMLSRPKPWSKLTQKGREPFIRMQLWLNG [R10Y] | -0.306 ± 0.11
26 | QEVDTIELTRQVKEKLAKNHICQRIFGEKVLGLSQGSVSDMLSRPKPWSKLTQKGREPFIRMQLWLNG [G20H] | -0.24 ± 0.12
27 | QEVDTIELTRQVKEKLAKNEICQRIFGEKVLGLSQGSVSDMLSRPKPWSKLTQKGREPFIRMQLWLNG [G20E] | -0.331 ± 0.083
28 | QEVDTIELTRQVKEKLYKNGICQRIFGEKVLGLSQGSVSDMLSRPKPWSKLTQKGREPFIRMQLWLNG [A17Y] | -0.214 ± 0.12
29 | QEVDTIELTRQVKEKLAKQGICQRIFGEKVLGLSQGSVSDMLSRPKPWSKLTQKGREPFIRMQLWLNG [N19Q] | 0.042 ± 0.061
30 | QEVHTIELTRQVKEKLAKNGICQRIFGEKVLGLSQGSVSDMLSRPKPWSKLTQKGREPFIRMQLWLNG [D4H] | -0.346 ± 0.077
31 | QEVDTIELTRQVKEKLAKNGICQRIFGEKVLGLSQGSVSDMLSRPEPWSKLTQKGREPFIRMQLWLNG [K46E] | -0.013 ± 0.055
32 | QEVDTIELTRQVKEKLAKNGICQRIFGEKVLGLSQGSVSDMLSRPAPWSKLTQKGREPFIRMQLWLNG [K46A] | -0.075 ± 0.065
33 | QEVDTIELTRQVKEKLAKNGICQRIFGEKVLGLSQGSVSDMLSRPVPWSKLTQKGREPFIRMQLWLNG [K46V] | -0.112 ± 0.054
34 | QEVDTIELTRCVKEKLAKNGICQRIFGEKVLGLSQGSVSDMLSRPKPWSKLTQKGREPFIRMQLWLNG [Q11C] | -0.323 ± 0.064
35 | QEVDTIELTRQVKEKLAKNGICQRIFGEKVLGLSQGSVSDMLSRPKPWSKLTQKGREPFIRMLLWLNG [Q63L] | -0.424 ± 0.052
36 | QEVDTIELTRQVKEKLAKNGDCQRIFGEKVLGLSQGSVSDMLSRPKPWSKLTQKGREPFIRMQLWLNG [I21D] | -0.559 ± 0.17
37 | QEVDTIELTRQVKEKLAKNGPCQRIFGEKVLGLSQGSVSDMLSRPKPWSKLTQKGREPFIRMQLWLNG [I21P] | -0.319 ± 0.071
38 | QEVDTIELTRQVKEKLAKNGICQRIFGEKVLGLKQGSVSDMLSRPKPWSKLTQKGREPFIRMQLWLNG [S34K] | 0.017 ± 0.068
39 | QEVDTIELTRQVKEKLAKNGICQRIFGEKVLGLAQGSVSDMLSRPKPWSKLTQKGREPFIRMQLWLNG [S34A] | -0.01 ± 0.076
40 | QEVDTIELTRQVKENLAKNGICQRIFGEKVLGLSQGSVSDMLSRPKPWSKLTQKGREPFIRMQLWLNG [K15N] | -0.012 ± 0.11

Source: the Human Domainome abundance scans (Beltran et al. 2025)
